Reference: publication PMC11817110

Target: T1, recombinant human LAIR1 (leukocyte-associated immunoglobulin-like receptor 1) (human), Q6GTX8
T1 chain: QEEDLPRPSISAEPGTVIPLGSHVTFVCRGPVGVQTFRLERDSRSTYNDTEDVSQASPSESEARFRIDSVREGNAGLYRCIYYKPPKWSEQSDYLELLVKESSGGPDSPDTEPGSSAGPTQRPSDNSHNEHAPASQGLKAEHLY

B1: polymerized type I collagen (protein)
chain 1: not shown
chain 2: GPMGLMGPRGPPGAVGAPGPQGFQGPAGEPGEPGQTGPAGARGPPGPPGKAGEDGHPGKPGRPGERGVVGPQGARGFPGTPGLPGFKGIRGHNGLDGLKGQPGAPGVKGEPGAPGENGTPGQTGARGLPGERGRVGAPGPAGARGNDGSVGPVGPAGPIGSAGPPGFPGAPGPKGELGPVGNPGPAGPAGPRGEVGLPGVSGPVGPPGNPGANGLPGAKGAAGLPGVAGAPGLPGPRGIPGPAGAAGATGARGLVGEPGPAGSKGESGNKGEPGAAGPQGPPGPSGEEGKRGPNGEVGSAGPPGPPGLRGNPGSRGLPGADGRAGVMGPPGSRGPTGPAGVRGPNGDSGRPGEPGLMGPRGFPGSPGNVGPAGKEGPAGLPGIDGRPGPIGPAGARGEPGNIGFPGPKGPTGDPGKNGEKGHAGLAGARGAPGPDGNNGAQGPPGPQGVQGGKGEQGPAGPPGFQGLPGPAGTAGEVGKPGERGIPGEFGLPGPAGPRGERGPPGESGAAGPAGPIGSRGPSGPPGPDGNKGEPGVLGAPGTAGPSGPSGLPGERGAAGIPGGKGEKGETGLRGDVGSPGRDGARGAPGAVGAPGPAGANGDRGEAGPAGPAGPAGPRGSPGERGEVGPAGPNGFAGPAGAAGQPGAKGERGTKGPKGENGPVGPTGPVGAAGPAGPNGPPGPAGSRGDGGPPGATGFPGAAGRIGPPGPSGISGPPGPPGPAGKEGLRGPRGDQGPVGRTGETGASGPPGFAGEKGPSGEPGTAGPPGTPGPQGILGAPGFLGLPGSRGERGLPGVAGSVGEPGPLGIAGPPGARGPPGAVGNPGVNGAPGEAGRDGNPGSDGPPGRDGQAGHKGERGYPGNPGPAGAAGAPGPQGAVGPAGKHGNRGEPGPAGSVGPAGAVGPRGPSGPQGIRGEKGEPGDKGPRGLPGLKGHNGLQGLPGLAGHHGDQGAPGPVGPAGPRGPAGPSGPAGKDGRTGQPGAVGPAGIRGSQGSQGPAGPPGPPGPPGPPGPS
modifications: here or on the partner: covalent bond between the protein and the PVP moiety; γ-irradiated | covalent bond between the protein and the PVP moiety; γ-irradiated
Q: What does the source list for B1?
A: percentage of CD14+/CD16+/CD163+/IL-10-expressing cells (M2 phenotype) in M1 cultures without vs. with 10% PTIC, flow cytometry: 19.8%; percentage of CD16+/CD36+/CD86+/IL-1β-expressing cells (M1 phenotype) in M1 cultures without vs. with 10% PTIC, flow cytometry: 1.5%
